Measured values: publication PMC5146963
Values joined by “and” are separate entries in the source; they are usually repeats but may differ in a detail not shown here. Equal entries are not always repeated.

How the values were obtained:
[1] = target: T1, EcFrmR (Escherichia coli K12) (UniProt P0AAP3); assay: BLI; conditions: BLItz, 50 mM Tris-HCl pH 8.0, 0.5 M NaCl, 20 C; 100 nM biotinylated DNA loaded on SA tips; EcFrmR concentrations as tetramer
T1 sequence: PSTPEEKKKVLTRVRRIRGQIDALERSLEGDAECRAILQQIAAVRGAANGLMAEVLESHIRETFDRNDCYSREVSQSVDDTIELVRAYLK

[2] = test system: EcFrmR (Escherichia coli K12); assay: BLI; conditions: BLItz, 50 mM Tris-HCl pH 8.0, 0.5 M NaCl, 20 C, 100 nM biotinylated DNA loaded on SA tips, EcFrmR concentrations as tetramer

GGCCTTCCCTGCCGATTAGCCCCCCCCCCTTTCCTCTTTGTTTTCCGACCACATTCACCGGATAAATTTTATTCTCCAGTGTTATATACTATAGGGGGGTATGCATTGACATATAGAATACCCCCCTATAGTATATTGCATGCAGATGATGAGGTGCGAAATGCCCAGTACTCCGGAAGAGAAGAAA (double strand) [Pfrm (frmRAB promoter)]
Kd [1]: 220 nM and 520 nM

GTTAAGGGCTCAGAATAATCACATTATTTTTTCTCCTAACCATAAAGGATTAGTTTATCGGCGTTAATCTTTTCTCATACACTATCGGGTTAGGGAAAATATCTGGTGTTGGGGACAGAGTCAGCAGCGTATTAGTTGAATGCTTAATATCAGGCTGCTGAATTGTCAGCACTGTGTTTGCGAAGAGGATGCGAAATAAATGAACCCGGTTGATCGTCCACTATTAG (double strand) [PydhY]
Kd [1]: 3600 nM

Pfrm (frmRAB promoter)
Kd ([2]; Zn(II)4-loaded tetramer, kf 5660 M-1 s-1, kr 0.003 s-1): 520 nM | Kd ([2]; no Zn, no HCHO, kf 13000 M-1 s-1, kr 0.0028 s-1, text ~220, upper limit): 220 nM

PydhY
Kd ([2]; no Zn, no HCHO, kf 1950 M-1 s-1, kr 0.007 s-1, text ~3600): 3600 nM
